Legend:
Experiment in all cases: holdup assay
Parameters in all cases: key: below the threshold = too weak to quantify, mostly under pKd 3.1 to 4
NHERF3_3, Q5T2W1 = biological target: T1, NHERF3_3, Q5T2W1
T1 sequence (Q5T2W1 238-333, limits assumed, looked up): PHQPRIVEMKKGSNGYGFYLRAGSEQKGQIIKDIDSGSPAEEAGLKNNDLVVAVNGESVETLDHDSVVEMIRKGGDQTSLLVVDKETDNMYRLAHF

MPP2, Q14168 = biological target: T2, MPP2, Q14168
T2 sequence (Q14168 180-250, limits assumed, looked up): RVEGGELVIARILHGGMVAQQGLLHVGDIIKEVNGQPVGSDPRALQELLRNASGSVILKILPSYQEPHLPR

LIN7B, Q9HAP6 = biological target: T3, LIN7B, Q9HAP6
T3 sequence (Q9HAP6 88-185, limits assumed, looked up): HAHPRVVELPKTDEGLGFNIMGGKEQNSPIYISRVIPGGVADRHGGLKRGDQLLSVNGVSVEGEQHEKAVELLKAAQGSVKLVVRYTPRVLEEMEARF

NHERF3_1, Q5T2W1 = biological target: T4, NHERF3_1, Q5T2W1
T4 sequence (Q5T2W1 4-100, limits assumed, looked up): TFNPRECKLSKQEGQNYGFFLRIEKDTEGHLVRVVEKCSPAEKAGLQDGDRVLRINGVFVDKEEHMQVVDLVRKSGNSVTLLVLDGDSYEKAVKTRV

RHPN1, Q8TCX5 = biological target: T5, RHPN1, Q8TCX5
T5 sequence (Q8TCX5 508-602, limits assumed, looked up): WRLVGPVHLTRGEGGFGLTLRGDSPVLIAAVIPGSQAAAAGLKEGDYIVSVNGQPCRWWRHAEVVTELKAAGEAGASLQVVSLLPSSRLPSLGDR

GRASP, Q7Z6J2 = biological target: GRASP, Q7Z6J2
DFNB31_3, Q9P202 = biological target: T6, DFNB31_3, Q9P202
T6 sequence (Q9P202 811-907, limits assumed, looked up): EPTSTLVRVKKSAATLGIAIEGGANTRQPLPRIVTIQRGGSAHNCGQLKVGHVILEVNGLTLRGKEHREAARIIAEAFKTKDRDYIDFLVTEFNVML

DLG5_1, Q8TDM6 = biological target: DLG5_1, Q8TDM6
NHERF4_1, Q86UT5-2 = biological target: NHERF4_1, Q86UT5-2
DLG1_1, Q12959 = biological target: DLG1_1, Q12959
Inadl_8, Q8NI35 = biological target: Inadl_8, Q8NI35
RADIL, Q96JH8 = biological target: T7, RADIL, Q96JH8
T7 sequence (Q96JH8 971-1071, limits assumed, looked up): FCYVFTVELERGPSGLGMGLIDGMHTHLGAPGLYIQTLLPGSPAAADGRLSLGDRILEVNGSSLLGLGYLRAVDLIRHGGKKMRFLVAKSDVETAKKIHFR

PDLIM1, O00151 = biological target: PDLIM1, O00151
Inadl_2, Q8NI35 = biological target: Inadl_2, Q8NI35
DLG1_2, Q12959 = biological target: DLG1_2, Q12959
ARHGEF12, Q9NZN5-2 = biological target: ARHGEF12, Q9NZN5-2
LDB3, O75112 = biological target: LDB3, O75112
APBA2_2, Q99767 = biological target: T8, APBA2_2, Q99767
T8 sequence (Q99767 654-744, limits assumed, looked up): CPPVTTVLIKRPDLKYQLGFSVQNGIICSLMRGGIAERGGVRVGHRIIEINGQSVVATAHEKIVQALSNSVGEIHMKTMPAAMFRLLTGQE

GIPC2, Q8TF65 = biological target: GIPC2, Q8TF65
DLG2_2, Q15700 = biological target: DLG2_2, Q15700
GRID2IP_1, A4D2P6 = biological target: GRID2IP_1, A4D2P6
PDZRN4_1, Q6ZMN7 = biological target: PDZRN4_1, Q6ZMN7
Inadl_10, Q8NI35 = biological target: Inadl_10, Q8NI35
Inadl_6, Q8NI35 = biological target: Inadl_6, Q8NI35
MAGI2_2, Q86UL8 = biological target: MAGI2_2, Q86UL8
ARHGAP21, Q5T5U3 = biological target: T9, ARHGAP21, Q5T5U3
T9 sequence (Q5T5U3 45-169, limits assumed, looked up): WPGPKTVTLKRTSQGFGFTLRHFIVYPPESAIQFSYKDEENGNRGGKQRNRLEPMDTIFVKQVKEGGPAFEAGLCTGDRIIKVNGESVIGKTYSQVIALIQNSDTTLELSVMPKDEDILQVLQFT

TIAM2, Q8IVF5 = biological target: T10, TIAM2, Q8IVF5
T10 sequence (Q8IVF5 885-986, limits assumed, looked up): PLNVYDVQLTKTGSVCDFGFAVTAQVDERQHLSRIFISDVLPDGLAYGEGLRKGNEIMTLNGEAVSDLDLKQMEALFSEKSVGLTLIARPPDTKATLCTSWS

[1] = plain residues with an end cap or a label only (N-terminal biotin on a linker: ttds)
[2] = plain residues with an end cap or a label only (N-terminal biotin on a linker: ahx)
[3] = plain residues with an end cap or a label only (N-terminal biotin on a linker: ado-ado)

Sequence of DLG2_2, Q15700 (Q15700 189-283): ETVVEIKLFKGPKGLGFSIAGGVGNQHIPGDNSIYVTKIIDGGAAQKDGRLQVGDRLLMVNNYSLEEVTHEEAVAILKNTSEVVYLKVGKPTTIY
Sequence of Inadl_8, Q8NI35 (Q8NI35 1425-1530): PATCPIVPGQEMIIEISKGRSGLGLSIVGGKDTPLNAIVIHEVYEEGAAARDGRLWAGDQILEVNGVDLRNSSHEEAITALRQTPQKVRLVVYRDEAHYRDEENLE
Sequence of Inadl_2, Q8NI35 (Q8NI35 238-335): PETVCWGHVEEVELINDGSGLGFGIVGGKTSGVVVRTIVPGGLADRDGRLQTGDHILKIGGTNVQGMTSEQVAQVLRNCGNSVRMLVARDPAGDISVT
Sequence of PDLIM1, O00151 (O00151 1-87): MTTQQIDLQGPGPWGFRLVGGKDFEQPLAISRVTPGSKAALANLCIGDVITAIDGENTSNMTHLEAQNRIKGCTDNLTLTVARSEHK
Sequence of NHERF4_1, Q86UT5-2 (Q86UT5 other isoform, or with tags, fused parts or gaps): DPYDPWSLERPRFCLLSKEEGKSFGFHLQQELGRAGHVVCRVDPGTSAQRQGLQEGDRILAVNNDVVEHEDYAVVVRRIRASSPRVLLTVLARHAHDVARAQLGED
Sequence of MAGI2_2, Q86UL8 (Q86UL8 410-522): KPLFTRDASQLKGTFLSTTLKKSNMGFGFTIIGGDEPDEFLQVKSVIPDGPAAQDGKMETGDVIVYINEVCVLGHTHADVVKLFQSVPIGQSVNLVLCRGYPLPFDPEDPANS
Sequence of LDB3, O75112 (O75112 1-94): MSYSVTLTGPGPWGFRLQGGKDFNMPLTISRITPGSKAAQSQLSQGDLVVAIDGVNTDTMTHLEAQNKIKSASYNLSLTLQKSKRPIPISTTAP
Sequence of GIPC2, Q8TF65 (Q8TF65 112-203): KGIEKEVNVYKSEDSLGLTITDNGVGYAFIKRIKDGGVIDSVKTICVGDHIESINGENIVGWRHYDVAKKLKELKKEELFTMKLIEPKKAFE
Sequence of DLG5_1, Q8TDM6 (Q8TDM6 617-713): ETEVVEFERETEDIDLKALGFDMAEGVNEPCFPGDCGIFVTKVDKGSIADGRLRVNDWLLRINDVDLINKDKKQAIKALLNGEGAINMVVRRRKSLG
Sequence of ARHGEF12, Q9NZN5-2 (Q9NZN5 other isoform, or with tags, fused parts or gaps): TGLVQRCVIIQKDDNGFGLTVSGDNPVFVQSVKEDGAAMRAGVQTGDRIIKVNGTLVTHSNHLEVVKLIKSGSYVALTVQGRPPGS
Sequence of GRASP, Q7Z6J2 (Q7Z6J2 96-193): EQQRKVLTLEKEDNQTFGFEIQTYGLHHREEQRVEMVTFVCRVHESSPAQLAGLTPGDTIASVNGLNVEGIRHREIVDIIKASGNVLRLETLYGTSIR
Sequence of GRID2IP_1, A4D2P6 (A4D2P6 1-87): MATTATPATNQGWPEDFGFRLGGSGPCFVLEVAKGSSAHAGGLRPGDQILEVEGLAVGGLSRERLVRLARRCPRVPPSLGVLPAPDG
Sequence of Inadl_6, Q8NI35 (Q8NI35 1058-1167): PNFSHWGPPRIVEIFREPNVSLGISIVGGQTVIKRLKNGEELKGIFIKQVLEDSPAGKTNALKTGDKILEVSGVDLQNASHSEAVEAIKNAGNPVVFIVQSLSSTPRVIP
Sequence of PDZRN4_1, Q6ZMN7 (Q6ZMN7 213-318): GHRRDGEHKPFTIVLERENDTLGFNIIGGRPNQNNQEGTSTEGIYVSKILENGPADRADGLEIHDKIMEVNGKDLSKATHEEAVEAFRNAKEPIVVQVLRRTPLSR
Sequence of Inadl_10, Q8NI35 (Q8NI35 1673-1763): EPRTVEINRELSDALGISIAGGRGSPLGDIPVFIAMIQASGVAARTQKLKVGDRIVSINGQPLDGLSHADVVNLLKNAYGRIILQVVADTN

For NQLAWFDTDL [CTNNB1, P35222], the pKd (NHERF3_3, Q5T2W1; [1]) was “below the threshold”, the pKd (MPP2, Q14168; [1]) was “below the threshold” and the pKd (LIN7B, Q9HAP6; [1]) was “below the threshold”. For the same binder, the pKd (NHERF3_1, Q5T2W1; [1]) was 3.66, the pKd (RHPN1, Q8TCX5; [1]) was 4.46 and the pKd (GRASP, Q7Z6J2; [1]) was “below the threshold”. For the same binder, the pKd (DFNB31_3, Q9P202; [1]) was “below the threshold”, the pKd (DLG5_1, Q8TDM6; [1]) was “below the threshold” and the pKd (NHERF4_1, Q86UT5-2; [1]) was “below the threshold”. For the same binder, the pKd (DLG1_1, Q12959; [1]) was “below the threshold”, the pKd (Inadl_8, Q8NI35; [1]) was “below the threshold” and the pKd (RADIL, Q96JH8; [1]) was “below the threshold”. For the same binder, the pKd (PDLIM1, O00151; [1]) was 4.16, the pKd (Inadl_2, Q8NI35; [1]) was “below the threshold” and the pKd (DLG1_2, Q12959; [1]) was “below the threshold”. The pKd (ARHGEF12, Q9NZN5-2; [1]) was 4.2, the pKd (LDB3, O75112; [1]) was 3.99 and the pKd (APBA2_2, Q99767; [1]) was “below the threshold”. For the same binder, the pKd (GIPC2, Q8TF65; [1]) was 3.8, the pKd (DLG2_2, Q15700; [1]) was “below the threshold” and the pKd (GRID2IP_1, A4D2P6; [1]) was “below the threshold”. The pKd (PDZRN4_1, Q6ZMN7; [1]) was “below the threshold”, the pKd (Inadl_10, Q8NI35; [1]) was “below the threshold” and the pKd (Inadl_6, Q8NI35; [1]) was 4.13. The pKd (MAGI2_2, Q86UL8; [1]) was “below the threshold”, the pKd (ARHGAP21, Q5T5U3; [1]) was 4.88 and the pKd (TIAM2, Q8IVF5; [1]) was “below the threshold”.

For TIVSWPGTFL [LNX1, Q8TBB1], the pKd (NHERF3_3, Q5T2W1; [2]) was “below the threshold”, the pKd (MPP2, Q14168; [2]) was “below the threshold” and the pKd (LIN7B, Q9HAP6; [2]) was 3.48. For the same binder, the pKd (NHERF3_1, Q5T2W1; [2]) was 5.34, the pKd (RHPN1, Q8TCX5; [2]) was 4.17 and the pKd (GRASP, Q7Z6J2; [2]) was 4.15. For the same binder, the pKd (DFNB31_3, Q9P202; [2]) was “below the threshold”, the pKd (DLG5_1, Q8TDM6; [2]) was “below the threshold” and the pKd (NHERF4_1, Q86UT5-2; [2]) was 3.47. The pKd (DLG1_1, Q12959; [2]) was “below the threshold”, the pKd (Inadl_8, Q8NI35; [2]) was “below the threshold” and the pKd (RADIL, Q96JH8; [2]) was 4.45. The pKd (PDLIM1, O00151; [2]) was 3.63, the pKd (Inadl_2, Q8NI35; [2]) was “below the threshold” and the pKd (DLG1_2, Q12959; [2]) was “below the threshold”. The pKd (ARHGEF12, Q9NZN5-2; [2]) was “below the threshold”, the pKd (LDB3, O75112; [2]) was “below the threshold” and the pKd (APBA2_2, Q99767; [2]) was “below the threshold”. For the same binder, the pKd (GIPC2, Q8TF65; [2]) was “below the threshold”, the pKd (DLG2_2, Q15700; [2]) was “below the threshold” and the pKd (GRID2IP_1, A4D2P6; [2]) was “below the threshold”. For the same binder, the pKd (PDZRN4_1, Q6ZMN7; [2]) was 4.16, the pKd (Inadl_10, Q8NI35; [2]) was 4.25 and the pKd (Inadl_6, Q8NI35; [2]) was 4.1. The pKd (MAGI2_2, Q86UL8; [2]) was “below the threshold”, the pKd (ARHGAP21, Q5T5U3; [2]) was “below the threshold” and the pKd (TIAM2, Q8IVF5; [2]) was “below the threshold”.

In the case of GIFPTLTSPL [SHROOM3, Q8TF72], the pKd (NHERF3_3, Q5T2W1; [2]) is reported as “below the threshold”, the pKd (MPP2, Q14168; [2]) is reported as “below the threshold” and the pKd (LIN7B, Q9HAP6; [2]) is reported as “below the threshold”. It also gave a pKd (NHERF3_1, Q5T2W1; [2]) of 4.2, a pKd (RHPN1, Q8TCX5; [2]) of 4.27 and a pKd (GRASP, Q7Z6J2; [2]) of 5.03. The pKd (DFNB31_3, Q9P202; [2]) was “below the threshold”, the pKd (DLG5_1, Q8TDM6; [2]) was “below the threshold” and the pKd (NHERF4_1, Q86UT5-2; [2]) was 4.15. The pKd (DLG1_1, Q12959; [2]) was “below the threshold”, the pKd (Inadl_8, Q8NI35; [2]) was “below the threshold” and the pKd (RADIL, Q96JH8; [2]) was “below the threshold”. For the same binder, the pKd (PDLIM1, O00151; [2]) was 3.61, the pKd (Inadl_2, Q8NI35; [2]) was “below the threshold” and the pKd (DLG1_2, Q12959; [2]) was “below the threshold”. The pKd (ARHGEF12, Q9NZN5-2; [2]) was 4.26, the pKd (LDB3, O75112; [2]) was “below the threshold” and the pKd (APBA2_2, Q99767; [2]) was “below the threshold”. The pKd (GIPC2, Q8TF65; [2]) was “below the threshold”, the pKd (DLG2_2, Q15700; [2]) was “below the threshold” and the pKd (GRID2IP_1, A4D2P6; [2]) was “below the threshold”. For the same binder, the pKd (PDZRN4_1, Q6ZMN7; [2]) was “below the threshold”, the pKd (Inadl_10, Q8NI35; [2]) was “below the threshold” and the pKd (Inadl_6, Q8NI35; [2]) was “below the threshold”. The pKd (MAGI2_2, Q86UL8; [2]) was “below the threshold”, the pKd (ARHGAP21, Q5T5U3; [2]) was “below the threshold” and the pKd (TIAM2, Q8IVF5; [2]) was “below the threshold”.

With GKKSVKHSKI [ACOT6, Q3I5F7] the pKd (NHERF3_3, Q5T2W1; [3]) was “below the threshold”, the pKd (MPP2, Q14168; [3]) was “below the threshold” and the pKd (LIN7B, Q9HAP6; [3]) was “below the threshold”. For the same binder, the pKd (NHERF3_1, Q5T2W1; [3]) was 3.66, the pKd (RHPN1, Q8TCX5; [3]) was “below the threshold” and the pKd (GRASP, Q7Z6J2; [3]) was “below the threshold”. For the same binder, the pKd (DFNB31_3, Q9P202; [3]) was 3.85, the pKd (DLG5_1, Q8TDM6; [3]) was “below the threshold” and the pKd (NHERF4_1, Q86UT5-2; [3]) was “below the threshold”. For the same binder, the pKd (DLG1_1, Q12959; [3]) was “below the threshold”, the pKd (Inadl_8, Q8NI35; [3]) was 3.88 and the pKd (RADIL, Q96JH8; [3]) was “below the threshold”. The pKd (PDLIM1, O00151; [3]) was “below the threshold”, the pKd (Inadl_2, Q8NI35; [3]) was “below the threshold” and the pKd (DLG1_2, Q12959; [3]) was 3.97. The pKd (ARHGEF12, Q9NZN5-2; [3]) was 3.92, the pKd (LDB3, O75112; [3]) was “below the threshold” and the pKd (APBA2_2, Q99767; [3]) was “below the threshold”. The pKd (GIPC2, Q8TF65; [3]) was “below the threshold”, the pKd (DLG2_2, Q15700; [3]) was 3.56 and the pKd (GRID2IP_1, A4D2P6; [3]) was “below the threshold”. The pKd (PDZRN4_1, Q6ZMN7; [3]) was “below the threshold”, the pKd (Inadl_10, Q8NI35; [3]) was “below the threshold” and the pKd (Inadl_6, Q8NI35; [3]) was “below the threshold”. For the same binder, the pKd (MAGI2_2, Q86UL8; [3]) was 3.96, the pKd (ARHGAP21, Q5T5U3; [3]) was 4.06 and the pKd (TIAM2, Q8IVF5; [3]) was “below the threshold”.
